Results published in the DeepSol protein solubility set.

Test: soluble on expression in E. coli; label from the status in PepcDB or PDB records

| Sequence | soluble on expression in E. coli |
| --- | --- |
| MLKPEMIEKLNEQMNLELYSSLLYQQMSAWCSYHTFEGAAAFLRRHAQEEMTHMQRLFDYLTDTGNLPRINTVESPFAEYSSLDELFQETYKHEQLITQKINELAHAAMTNQDYPTFNFLQWYVSEQHEEEKLFKSIIDKLSLAGKSGEGLYFIDKELSTLDTQN | soluble |
| MAPVQGSYDYDLIVIGGGSAGLACAKEAVLNGARVACLDFVKPTPTLGTKWGVGGTCVNVGCIPKKLMHQASLLGEAVHEAAAYGWNVDDKIKPDWHKLVQSVQNHIKSVNWVTRVDLRDKKVEYINGLGSFVDSHTLLAKLKSGERTITAQTFVIAVGGRPRYPDIPGAVEYGITSDDLFSLDREPGKTLVVGAGYIGLECAGFLKGLGYEPTVMVRSIVLRGFDQQMAELVAASMEERGIPFLRKTVPLSVEKQDDGKLLVKYKNVETGEESEDVYDTVLWAIGRKGLVDDLNLPNAGVTVQKDKIPVDSQEATNVANIYAVGDIIYGKPELTPVAVLAGRLLARRLYGGSTQRMDYKDVATTVFTPLEYACVGLSEEDAVKQFGADEIEVFHGYYKPTEFFIPQKSVRYCYLKAVAERHGDQRVYGLHYIGPVAGEVIQGFAAALKSGLTINTLINTVGIHPTTAEEFTRLAITKRSGLDPTPAS | soluble |
| MEQAPPDPEKLLQPGPLEPLGGPGAVLEAAVGEENEGTREDGSGVDTMTGNNFWLKKIEISVSEAEKRTGRNAVNMQETYTAYLIETRSVEHADGQSVLTDSLWRRYSEFELLRNYLLVYYPHVVVPPLPEKRAEFVWHKLSADNMDPDFVERRRVGLENFLLRVASHPVLCRDKIFYSFLTQEGNWKETVNETGFQLKADSRLKALNATFRVKNPDKRFTELRHYSDELQSVISHLLRVRARVADRLYGVYKVHGNYGRVFSEWSAIEKEMGDGLQSAGHHMDVYASSIDDILEDEEHYADQLKEYLFYAEALRAVCRKHELMQYDLETAAQDLAAKKQQCEELATGTVRTFSLKGMTTKLFGQETPEQREARIKVLEEQINEGEQQLKSKNLEGREFVKNAWADIERFKEQKNRDLKEALISYAVMQISMCKKGIQVWTNAKECFSKM | soluble |
| MGSDKIHHHHHHLSIARETGSILLIPSTTTLRRAFDFETTFNDSIQFVGEDLSRQLAEDLNASKITLTSCCAYRNLSTILFNDSRIIERIDGYFQNFRYFHPDSQKIVKKLFTFMDPVRKRVSFWNIIYWNIHPTNHRKKPEKSTVSIFSFVTFQLRVDEFLENVGISLTVRNARVIETNVANDDQALELPEEDAFAKTMMVGVHIRHGMDISMNSRNRIHGHVDTPIEYYKRAIQQISKIYENVAFIICSDNVAWARRNLKLGKETLHFFCPGPREVDMAILKSCDSVIISTGTFGWWSAYLNVNASPDVYYYKHWPAPGSVMEKMTNKTEYF | not soluble |
| GMTDGEAVSAAAGPGAEGPPGPVGHWAPGSHILWRYRENGGPHVHIARPVTVVRDDADLLAVWLAPGTECVKPVLADGTPVHLEPLATRYTKPRTVQRDQWFGTGVLKLARPGEAWSVWLFWDPGWRFKNWYVNLERPLTRWEGGVDSEDHFLDISVHPDRTWHWRDEDEFAQALRDGLMDPASAGRVRRAGRSAVAEIRAWGSPFADGWEHWRPDPAWPVPSLPGDWDRTPAHVSS | soluble |
| MKAQMESWQDIQEYVKNNKKKHKRRMANDAMKNVNELGFPFTYFEDTYQFAIKTSIGMVDYFGTTGTWVVRKNQDRGRGLKKLKKYLEHPVPTKEIKKTKGNQSWMKNNR | not soluble |
| GSMIRSTLSSWREYLTPITHKSTFLTTGQITPEEFVQAGDYLCHMFPTWKWNEESSDISYRDFLPKNKQFLIIRKVPCDKRAEQCVEVEGPDVIMKGFAEDGDEDDVLEYIGSETEHVQSTPAGGTKDSSIDDIDELIQDMEIKEEDENDDTEEFNAKGGLAKDMAQERYYDLYIAYSTSYRVPKMYIVGFNSNGSPLSPEQMFEDISADYRTKTATIEKLPFYKNSVLSVSIHPCKHANVMKILLDKVRVVRQRRRKELQEEQELDGVGDWEDLQDDIDDSLRVDQYLIVFLKFITSVTPSIQHDYTMEGW | soluble |
| MGSDKIHHHHHHMKKVLVAGATGYLGRYAVQEFKNRGYWVRALVRNPEKFKKPGPFFAPEIDTLVDDVVFGDATKPETIAGLCDGIDVVFSSLGMIKPDFEHDNFDVDYQGNMNILAEALKAGVKKFVYVSVFDAHRMMNIPNVQAHEKFVRELQAAKIESTIIRPNGFFSEIGQFVARARRGFMLWIGDGYNRQNPIHGADLAKVCADAVDSSEKEIEVGGPEVFTYREMVDLAIEIAGTQPVQVSLPFWLADGIVGVLGLFNRDVHDVALFATTLSKMDFVSPKYGTHRLRDFFNECKLLPL | not soluble |
| MTPDPLYMRRAIELAQNAEGFTSPNPLVGAVLVAHGRIIGEGYHHCAGMPHAEVIAINSVRDRALLRESTLYVSLEPCSHYGKTPPCAELILREGIPHVVVAMLDPFPSVSGRGIKMLRDAGVSVQVGLLAEEAEELNRHFLTAQRQHRPYVTLKWAESSDGFIDALRDDASTPPVRLSTPLTTRFVHHRRMIHDAILVGFRTALLDNPSLTVRHWYGRNPLRVVTDRHLALPRHLTLFDGSVPTLVFTEKEQPSGYPSAVSFVRIDPSRPPVEQMLAELHARGIQSLLVEGGACILRSFIDSGLYDDVRIEHSTIILNEGVRAPHLPSY | not soluble |
| MKHGILVAYKPKGPTSHDVVDEVRKKLKTRKVGHGGTLDPFACGVLIIGVNQGTRILEFYKDLKKVFWVKMRLGLITETFDITGEVVEERECNVTEEEIREAIFSFVGEYDQVPPAYSAKKYKGERLYKLAREGKIINLPPKRVKIFKIWDVNIEGRDVSFRVEVSPGTYIRSLCMDIGYKLGCGATAVELVRESVGPHTIEESLNVFEAAPEEIENRIIPLEKCLEWLPRVVVHQESTKMILNGSQIHLEMLKEWDGFKKGEVVRVFNEEGRLLALAEAERNSSFLETLRKHERQERVLTLRKVFQTR | soluble |
| MSLSSKRDIEANTDLNSITYIPTFPEPFERDNSHTTASFVSIQIRLLVASVTEENFLDTEHQIYYLLQRGSFSVYISYWKLLIQLFVNEFEAQQQKRDLNLPFRFDFSNLVHRLLYNLAQELITRTPDTIEKVKELALPLSGKYPIRPLFLSFLNKDNESDSAIIEALNPEVHPIFTTLKDLHRTNMSVSNITQNLFAVENKPNFLTMLSEFLKPLQGETLNDWIALILSEILAPGSQTSNQPSQPWIVQVPNVDVREVIEATEMGTKVNGIIKSLGTNNVNWNRVFNLMSTKFFLNKPVNATLSSLNYLFCILNSGPLVDQFFACDWSLYFKLRLSFLMYQWNYNSECLDLSSLPNIKKINKSIPLTKKSQLSLISVGKLNIELFLSRDEISKNPLFSSFHASFSEAYNNVPEYLAAVLISESKYFSLLVDNKSIIDELLISLVIKTYENNVIAFKELLKLVSKQKVIEVSRGIIASQNAQTINLVQALHDLGILDEVFEKLPIRDSLKLSPTAMHLGYLKFSEYIERNITLKTFVPTLDFIEAQTNIDELDPALKSVKLLNLHSLHSLIYRTANLKLSADERVALNNVIFKALISFPRLINYGYGHDDAIVANGDHAPIPQDVEKKMQTYLQKMYNKEMAIKDIVDILRKLRDSDDSNDQDIFCCIIHAVIAETTFFKEYPLEALATTSVLFGSMILFDLLRGFVLDVAFQIIYTFASESPDSKMFKFAVQALYAFRMRLNEYSPFCKRLLDEIPGLQTQPQIQQILTESAANPNVSEGHHHHHH | soluble |
| HDAIFILDKQGRLTWINQSYSALSGNTLEDIEGKDLPSILQLDKIKHANIIILLQSLETGTSISFELTNHHKDGTLFWIDVSITPILEPN | not soluble |
| MEAEMSDERCALVLEGGAMRGMYTAGVLDCFMDHDISFDAVIGVSAGALFGVNLLSKQRGRVIRYNKRFNSDKNYMGIRPLLREKNIVSTKYAYDTVPRELDPFDDEEYKKSDIPFYAVVTNIRTGKPEYVQIKSVFDQMDVLRASGSMPVVSKPVKLGNEWYLDGAVTDSIPYEHMLDMGYDRVVVVLTKPADYIKKPMPRLFTSVYKKRFPRFYEAFSNRHIMYNYQLEHLKELEKQGIAEVLRPSEHIKISKVEKDPNKLESLYQLGLRDAKRLLADKQGMEKQ | not soluble |
| MSLEFLMKKVVFALSALAVVSTSAFAAESGDGTIKFTGEIVDAPCVVSTDSQNQEVVLGQVKKNIFKAIGDKSSSKPFQIKLEDCDITSNTKVNVSFNGVGDTDDATLVSVNTEAGAATGVGIGIYDNANKLVEMNTGKSTTTLAAGQTVLYYTANYVATKDTVTTGYGNAEVDFNLSYEEGGSHHHHHH | soluble |
| MPNIVLSRIDERLIHGQVGVQWVGFAGANLVLVANDEVAEDPVQQNLMEMVLAEGIAVRFWTLQKVIDNIHRAADRQKILLVCKTPADFLTLVKGGVPVNRINVGNMHYANGKQQIAKTVSVDAGDIAAFNDLKTAGVECFVQGVPTEPAVDLFKLL | soluble |
| MTMDKSELVQKAKLAEQAERYDDMAAAMKAVTEQGHELSNEERNLLSVAYKNVVGARRSSWRVISSIEQKTERNEKKQQMGKEYREKIEAELQDICNDVLELLDKYLIPNATQPESKVFYLKMKGDYFRYLSEVASGDNKQTTVSNSQQAYQEAFEISKKEMQPTHPIRLGLALNFSVFYYEILNSPEKACSLAKTAFDEAIAELDTLNEESYKDSTLIMQLLRDNLTLWTSENQGDEGENLYFQ | soluble |
| MGSDKIHHHHHHMLNVSIVIPAWNEQERINDCLLNATRQTVMPHEVIVVDNRSTDSTVAVVEQFMKDHPEAPVKLLHQDDEQGLIPTRDYGLNHATGDILGRFDADCMIRPDWVEVVSGIFTEDPDAMGATGPVMYYDLPSRHFGLRGDNSTRKRIYRADDGQPLLFGSNMALRATAWREIADEVCQDKADVMHEDIDISLHLLGKDLKTVYCPRMIAGISARRMDTSPASFLNYMRRFKNTFNAHPQHYRKHKPEILITALYPVMHLLYPVWQKVLNTADINPAEAAWINEQMELAEQEGHELYDDTPTDEEWSEKHEE | not soluble |
| MKQLNFKKIFLNLLWPLLPFTAQAQENNTLYSILSKDNILVSSPSVQNQEEDIVTQMPNRHHKYDKRVHRYRRAWEALIPTHTKLQYAGGMGLLSWGIGWDYGKRGQWETDLLLGFIPRYSSKHFKMTMTLKQNYIPWSIWLGKDFSLEPLTTGIYFNTVFSDDFWTSEPERYPRGYYGFSTRIRTHIFLGQRVRFDVPEKYRKFSKSITAFYEISTCDLYVVSAFNNSYLKPDDYLRLSFGLKFQIF | not soluble |
| MAEDKTKPSELDQGKYDADDNVKIICLGDSAVGKSKLMERFLMDGFQPQQLSTYALTLYKHTATVDGRTILVDFWDTAGQERFQSMHASYYHKAHACIMVFDVQRKVTYRNLSTWYTELREFRPEIPCIVVANKIDADINVTQKSFNFAKKFSLPLYFVSAADGTNVVKLFNDAIRLAVSYKQNSQDFMDEIFQELENFSLEQEEEDVPDQEQSSSIETPSEEAASPHS | soluble |
| MGYTKAEILKALKGENVKFLRLQITDILGVVKNVEVPESQFEKALDGEIMFDGSSIEGFTRIEESDMLLRPDYNTFVILPDLVEDPKRGRVARLICDVYYPDGRPFEGDPRYVLKRQIERLKKLGFDNLYAGPEPEFFLFLRTPEGLPTTETHDRAGYFDLAPIDKGEEARRDMVNALVAMGFEIEAAHHEVAPGQHEIDFKYADALTTADNIATFKWVVKRIALNHGLHATFLPKPIRGINGSGMHTHLSLFKDGENAFYDPNAEYQLSQTALHFIAGLLEHAAGMVAVTNPLVNSYKRLTPGYEAPTNIAWSASNRSAMIRIPARRGVGTRAELRMPDPSCNPYLALAVMAAAGADGIERKLLPPPPIQRNIYQMTVRERRKHKIRELPGTLREALEALRKDPVIREALGEHVYTHFLQAKQMEWDDYRVTVHQWELDRYLATY | soluble |
| MADIVVDGIRATYNIRGESAALLCPPHPLMGGSRFDVRLERIAAELTKRNVSVLRFDYQRPFRSGIGEVEDAKKCVAYLKDRHDKIAVIRYSFGSVVASNVAEYCDAAVYISPLPEINSIYFKDAEIPKLFIIATRDQFVSLEESVKLYEQASKPKEVVKVETDHFYFGKFDFIAKITADFIERQSF | soluble |
